This test concerns the target tbxt_mouse Tbxt (UniProt P20293).

tbxt_mouse Tbxt, sequence (P20293 whole entry): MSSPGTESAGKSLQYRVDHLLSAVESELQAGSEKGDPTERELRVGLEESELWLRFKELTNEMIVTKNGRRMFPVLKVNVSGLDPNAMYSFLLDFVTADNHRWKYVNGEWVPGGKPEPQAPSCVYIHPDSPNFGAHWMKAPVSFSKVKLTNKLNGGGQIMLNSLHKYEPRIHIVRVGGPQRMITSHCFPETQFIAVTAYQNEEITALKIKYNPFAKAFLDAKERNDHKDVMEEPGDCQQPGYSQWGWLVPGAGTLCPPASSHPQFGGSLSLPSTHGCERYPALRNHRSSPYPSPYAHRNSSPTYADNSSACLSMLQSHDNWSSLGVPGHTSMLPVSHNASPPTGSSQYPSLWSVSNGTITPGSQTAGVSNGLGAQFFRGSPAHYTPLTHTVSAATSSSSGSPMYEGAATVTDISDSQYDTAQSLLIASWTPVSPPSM
Homeobox protein MIXL1 (Mus musculus), Q9WUI0 I113R, sequence (Q9WUI0 whole entry I113R): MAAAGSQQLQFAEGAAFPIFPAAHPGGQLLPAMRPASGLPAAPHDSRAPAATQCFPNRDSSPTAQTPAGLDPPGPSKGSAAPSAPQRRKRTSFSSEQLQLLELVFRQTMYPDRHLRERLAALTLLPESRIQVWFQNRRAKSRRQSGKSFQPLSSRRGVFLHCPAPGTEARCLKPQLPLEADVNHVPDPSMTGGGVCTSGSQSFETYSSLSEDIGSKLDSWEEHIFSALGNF
Homeobox protein MIXL1 (Mus musculus), Q9WUI0 R143I, sequence (Q9WUI0 whole entry R143I): as the sequence (Q9WUI0 whole entry I113R) above, with R113I, R143I counted along it
Homeobox protein MIXL1 (Mus musculus), Q9WUI0 V132A, sequence (Q9WUI0 whole entry V132A): as the sequence (Q9WUI0 whole entry I113R) above, with R113I, V132A counted along it
Homeobox protein MIXL1 (Mus musculus), Q9WUI0 P126I, sequence (Q9WUI0 whole entry P126I): as the sequence (Q9WUI0 whole entry I113R) above, with R113I, P126I counted along it

As to “Homeobox protein MIXL1 (Mus musculus), Q9WUI0 I113R”, the “effect of a mutation on the interaction” value is on record as “with no effect”.
With “Homeobox protein MIXL1 (Mus musculus), Q9WUI0 P126I”, the “effect of a mutation on the interaction” value is listed as “decreasing interaction strength”.
Then “Homeobox protein MIXL1 (Mus musculus), Q9WUI0 R143I”, with “with no effect”; and “Homeobox protein MIXL1 (Mus musculus), Q9WUI0 V132A”, with “with no effect”.

These data come from IntAct's records for PubMed 22164283.
